Consider three substances from patent publication US20130004947A1, “LUCIFERASE-LINKED ANALYSIS OF DNA-METHYLTRANSFERASE, PROTEIN METHYLTRANSFERASE AND S-ADENOSYLHOMOCYSTEINE AND USES THEREOF” (priority 2010, published 2013).

Values joined by “and” are separate entries in the source; they are usually repeats but may differ in a detail not shown here. Equal values may be shown once. Read-outs that look alike come from different tables or passages of the source.

What all share (assay type): biochemical
For series [1], the system named is AdoMet and poly(dIdC). The series can be described thus: continuous luciferase-linked AdoHcy assay of DNMT kinetics. To be noted: for activity of catalytic domain alone (initial reaction rates): without DNMT3L, even at high substrate and enzyme concentrations. The protocol:
AdoHcy to ATP Conversion Buffer. The 2×AdoHcy to ATP conversion buffer was prepared as previously described with minor modifications (17). In brief, 100 mL of buffer contained 100 mM Tris-acetate pH 7.7, 2 mM PEP, 2 mM sodium pyrophosphate, 2 mM PRPP, 15 mM (NH4)2SO4, 15 mM (NH4)2MoO4, and phosphatase inhibitors (Roche PhosSTOP, 10 tablets). A 4:1 cellulose:charcoal mixture was suspended in water and packed into a disposable mini-column to a bed volume of 1.5 mL, through which a 10 mL aliquot of the previously prepared buffer was passed at 2 mL/min to remove traces of adenine, AMP, and ATP. Treated buffer was filtered (0.2 μm) and stored in 1 mL aliquots at −80° C. Immediately prior to use, the 2× conversion buffer was completed by additions to give final concentrations of 10 mM MgSO4, 6 U APRTase, 18 U PPDK, and 250 nM MTAN and an increase in volume of 14 μL.
DNMT Kinetics using Continuous Luciferase Assay. Continuous assay buffer (2×) was prepared by adding 200 μl luciferin/luciferase (ATPlite) to 1 mL of the AdoHcy to ATP conversion buffer and warmed to room temperature. To 25 μL of this mixture was added AdoMet and the DNA substrate in DNMT assay buffer (25 mM HEPES pH 7.6, 50 mM KCl, 5% glycerol, 0.1% DTT) in a 96-well non-binding surface microplate. The mixture was incubated at room temperature for 3 min to permit any contaminating adenine, AMP, ATP or 5′-methylthioadenosine (MTA) to be converted to a stable background light signal as measured in the kinetic acquisition mode of the luminometer for 3 min. DNMT was added to give a final volume of 50 μL. After 3 min, the luminescent signal was measured for the following 3 min. […] Initial rates were calculated by subtracting the background rate from that obtained after DNMT addition. Initial rates were fitted to the Morrison equation for tight binding substrates with the exception of data obtained while using M.SssI CpG methyltransferase which were fit to the Michaelis-Menten equation. The Morrison equation was used as high enzyme concentrations were necessary and it could no longer be assumed that free substrate concentration was equal to total substrate concentration. The kinetic parameters Km and Vmax were obtained from these fits after converting the luminescent rate (RLU/s) to an enzymatic rate (pmol AdoHcy/h) using the AdoHcy standard curve. The AdoHcy standard curve was constructed by mixing 25 μL of DNMT assay buffer containing varied concentrations of AdoHcy with 25 μL of continuous assay buffer, incubating for several minutes, and then measuring the luminescence of each sample in the discontinuous acquisition mode of the luminometer. Values were background corrected using a mixture containing no AdoHcy.

In series [2] the test system is [methyl-3H]AdoMet and poly(dIdC). The series can be described thus: radiometric filter paper assay of DNMT1 rate. To be noted: 258 nM DNMT1, 672 nM [methyl-3H]AdoMet. As for the experimental part: DNMT1 Rate Measurement using Radiometric Assay. The same two reactions were prepared as above for the discontinuous luciferase assay with the exception that 672 nM S-adenosyl-1-[methyl-^3H]methionine was used in place of non-radioactive AdoMet. 15 μL aliquots were removed from each reaction in triplicate at 2 min intervals from 2 to 8 min and spotted on 2.3 cm diameter Whatman DE81 filter paper circles which were allowed to dry for 30 min. The circles were washed with 0.2 M NH4HCO3 (4×2 mL), water (4×2 mL), and absolute ethanol (1×2 mL); each wash lasted 5 min before decanting the liquid. Circles were then dried for 1 h, then placed in scintillation vials and covered with 10 mL Betaplate Scint scintillation fluid. Radioactivity was measured on a Tricarb scintillation counter and background was corrected with a no-enzyme control. A conversion factor of 12 CPM/fmol was used.
Parallel reactions were performed with 672 nM [methyl-^3H]AdoMet to compare the initial rates from the luciferase assay with those obtained from the radiometric filter paper assay (4, 5). Reactions were limited to approximately 700 nM AdoMet because of the concentration of the [methyl/-^3H]AdoMet stock solution. The luciferase-linked assays were performed at the same AdoMet concentration. […] The dried circles were analyzed for radioactivity in a scintillation counter. […]

For series [3], the system named is AdoMet and poly(dIdC). The series can be described thus: discontinuous luciferase-linked AdoHcy assay of DNMT1 rate. As to conditions: 258 nM DNMT1, 682 nM AdoMet. The protocol:
DNMT1 Rate Measurement using Discontinuous Luciferase Assay. DNMT1 was added to a solution of 682 nM AdoMet and 1 μg poly(dIdC) in DNMT assay buffer to a concentration of 258 nM in 300 μL total volume which had been equilibrated to 22° C. or 37° C. A control reaction containing no DNMT1 was also performed at 37° C. 15 μL aliquots of the reaction were quenched with 5 μL of 100 mM HCl at 2 min intervals from 2 to 10 min in triplicate. These were neutralized with 5 μL of 100 mM KOH and were mixed with 25 μL of 2×AdoHcy to ATP conversion buffer and incubated at room temperature for several minutes. 20 μL of each mixture were then mixed with 80 μL of ATPlite in a 96-well non-binding surface microplate. These mixtures were incubated at room temperature for several minutes and their luminescence was measured in the single measurement mode of the luminometer. […]
Initial reaction rates for human DNMT1 were measured both at room temperature and at 37° C. […] After incubation at room temperature for ˜3 min, the luminescence of each sample was measured and an initial rate plot was constructed (FIG. 5A). Initial rates measured in RLU/s were converted to units of pmol/h with an AdoHcy standard curve constructed under the same assay conditions (Table 2). […] The discontinuous rates were readily measured even at low AdoMet concentrations, and the assay is suitable for automated screening. […]

Regarding “CD-DNMT3a: 286 amino acid C-terminal catalytic domain of human DNMT3a (residues 627-912), His6 tagged”, in the series on AdoMet and poly(dIdC) [1], the “activity of catalytic domain alone (initial reaction rates)” value is reported as “low activity”.

Regarding “CD-DNMT3b: 286 amino acid C-terminal catalytic domain of human DNMT3b (residues 568-853), His6 tagged”, the “activity of catalytic domain alone (initial reaction rates)” value with AdoMet and poly(dIdC) [1] is recorded as “low activity”.

Take “DNMT1: full-length human DNA (cytosine 5)-methyltransferase 1, N-terminal His6 tag, expressed in SF9 cells”: the Initial rate with AdoMet and poly(dIdC) [1] (continuous assay, 258 nM DNMT1, 682 nM AdoMet, 1 μg poly(dIdC) per 50 μL) was 30 pmol/h and 30.1 pmol/h; in series [2] (22° C.), 11.6 pmol/h; in series [2] (37° C.), 13.0 pmol/h; in the series with AdoMet and poly(dIdC) [3] (22° C. (room temperature)), 6.3 pmol/h and 6.26 pmol/h; with AdoMet and poly(dIdC) [3] (37° C.), 7.5 pmol/h and 7.52 pmol/h. Moreover, in the series on AdoMet and poly(dIdC) [1] (room temperature), the Vmax is 726 ± 75 pmol/h. Besides, in the series on AdoMet and poly(dIdC) [1] (room temperature), the kcat is 28 ± 3 h⁻¹ and 28.1 h⁻¹. Moreover, the Michaelis-Menten constant (Km) was 2700 ± 700 nM in the series with AdoMet and poly(dIdC) [1] (room temperature, 1 μg poly(dIdC), value as printed in the text, read-out: Km for AdoMet); 840 nM and 837 nM in the series with AdoMet and poly(dIdC) [1] (room temperature, near saturating AdoMet: 35 μM for DNMT1, 10 μM for CD-DNMT3a/3b complexes with DNMT3L, read-out: Km DNA (poly(dIdC))); 2660 ± 750 nM in the series on AdoMet and poly(dIdC) [1] (room temperature, near saturating poly(dIdC), dIdC base pair concentration 16.4 μM, read-out: Km AdoMet).
